Conditions: Escherichia coli (strain K12); pH 7; Thermal; DSC; phosphate 50 mM; whole UniProt chain shown

B1: Outer membrane porin C wild type, P06996 (protein)
chain: MKVKVLSLLVPALLVAGAANAAEVYNKDGNKLDLYGKVDGLHYFSDNKDVDGDQTYMRLGFKGETQVTDQLTGYGQWEYQIQGNSAENENNSWTRVAFAGLKFQDVGSFDYGRNYGVVYDVTSWTDVLPEFGGDTYGSDNFMQQRGNGFATYRNTDFFGLVDGLNFAVQYQGKNGNPSGEGFTSGVTNNGRDALRQNGDGVGGSITYDYEGFGIGGAISSSKRTDAQNTAAYIGNGDRAETYTGGLKYDANNIYLAAQYTQTYNATRVGSLGWANKAQNFEAVAQYQFDFGLRPSLAYLQSKGKNLGRGYDDEDILKYVDVGATYYFNKNMSTYVDYKINLLDDNQFTRDAGINTDNIVALGLVYQF
With B1 the Tm was 87 °C and the “unfolding enthalpy (calorimetric)” value was 328 kcal/mol.

Reference: FireProtDB (doi:10.1021/bi100877y)
